# Test results reported in US20040241164A1.
# What was measured:
# Soluble Aβ 1-40 = Soluble Aβ 1-40 (UniProt P05067); test: BIAcore 2000 SPR, antibody captured by anti-Ig, soluble Aβ in flow
# Soluble Aβ 1-42 = Soluble Aβ 1-42 (UniProt P05067); test: as above
Substance,Kd (Soluble Aβ 1-40),Kd (Soluble Aβ 1-42)
Murine anti-Aβ antibody 266,0.004 nM,0.004 nM
anti-Aβ murine antibody 4G8,23 nM,24 nM
anti-Aβ murine antibody 21F12,–,4.4 nM
